Assays:
[1] = target: HIV-1 gp41 epitope peptide with linker, conjugated to 17-base DNA (peptide-linker-DNA) and hybridized to the modular oligonucleotide probe (HIV-1); test: electrochemical modular probe (methylene blue, square wave voltammetry) on a gold electrode, antibody titration in 80% whole blood [panel c (lower]
[2] = target: HIV-1 gp41 epitope peptide with linker, conjugated to 17-base DNA (peptide-linker-DNA) and hybridized to the modular oligonucleotide probe (HIV-1); test: fluorescent modular DNA probe with two gp41 peptide copies, titrated with antibody; two-state fit

antibody 2F5 specific for gp41 (Polymun Scientific)
Kd [1]: 33 nM
Kd [2]: 4 nM

From patent publication US9828628
